According to paper PMC4182348 (PLoS ONE, 2014):

B1: anti-TT mAb of hybridoma 14 (antibody, V domains shown)
VH: VQLQESGPGLVAPSQSLSITCTVSGFSLTSYGVHWVRQPPGKGLEWLGVIWPGGSTNYNSALMSRLSISQDNSKSQVFLKMNSLQIDDTAMYHCARDFQYGNYFDYWGQGTSLTVSS
VL: MPASPGEKITITCSASSSISSNYLHWYQQKPGFSPKLLIYRTSNLASGVPARFSGSGSGTSYSLTVGTMEAEDVATYYCQQGTSIPTFGAGTKLELK
B2: anti-TT mAb of hybridoma 24 (antibody, V domains shown)
VH: VQLQQTGPGLVQPSQSLSITCTVSAFSLTNYGIHWVRQSPGKGLEWLGVIWTGGSTDYNAPFISRLSISKDNSKSQVFFKMNSLQANDTAIYYCVRDGYRVMDYWGQGTSVTVSS
VL: LSASVGETVTITCRASGNIHNYLAWYQQKQGKSPQLLVYNAKTLTDGVPSRFSGSGSGTQHSLKINSLQPEDFGSYYCQHFWTIPWTFGGGTKLEIK

Legend:
[1] = molecular target: tetanus toxin fragment C of the heavy chain; assay: ELISA; conditions: one partner purified
[2] = molecular target: T1, tetanus toxin light chain (Clostridium tetani, strain  …, UniProt P04958); assay: ELISA; conditions: one partner purified
T1 construct: source: bought: List Biological Laboratories
T1 sequence (P04958 1-457): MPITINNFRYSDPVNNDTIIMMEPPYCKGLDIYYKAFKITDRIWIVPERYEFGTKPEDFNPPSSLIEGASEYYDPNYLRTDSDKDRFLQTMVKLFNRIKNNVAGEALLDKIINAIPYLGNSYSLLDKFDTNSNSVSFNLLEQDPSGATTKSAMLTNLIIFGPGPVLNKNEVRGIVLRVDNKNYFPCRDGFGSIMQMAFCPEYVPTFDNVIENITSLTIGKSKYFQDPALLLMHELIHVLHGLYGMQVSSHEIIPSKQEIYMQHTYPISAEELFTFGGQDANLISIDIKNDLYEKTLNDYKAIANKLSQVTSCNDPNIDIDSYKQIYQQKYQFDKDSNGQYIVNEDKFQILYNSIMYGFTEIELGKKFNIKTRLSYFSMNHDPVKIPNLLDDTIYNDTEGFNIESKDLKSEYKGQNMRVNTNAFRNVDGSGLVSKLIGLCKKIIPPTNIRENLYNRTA

Chain of tetanus toxin fragment C of the heavy chain (P04958 865-1315 limits assumed): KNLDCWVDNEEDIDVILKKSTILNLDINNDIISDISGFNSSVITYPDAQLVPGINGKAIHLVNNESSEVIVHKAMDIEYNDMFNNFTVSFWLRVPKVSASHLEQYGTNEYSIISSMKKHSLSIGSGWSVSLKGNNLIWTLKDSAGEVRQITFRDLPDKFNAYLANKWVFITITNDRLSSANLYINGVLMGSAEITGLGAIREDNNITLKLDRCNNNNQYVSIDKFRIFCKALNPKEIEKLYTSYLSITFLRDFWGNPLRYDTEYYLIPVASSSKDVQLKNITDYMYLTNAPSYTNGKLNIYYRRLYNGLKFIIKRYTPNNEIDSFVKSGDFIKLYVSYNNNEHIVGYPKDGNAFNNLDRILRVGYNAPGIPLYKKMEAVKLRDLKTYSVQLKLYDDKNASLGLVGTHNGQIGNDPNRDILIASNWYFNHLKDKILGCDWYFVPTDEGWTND

Row | Binder | binding result [1] | binding result [2]
1 | B1 | no binding | no binding
2 | B2 | binds | no binding
